B1: M. alpina Δ6 desaturase: GenBank AF465281; codon-optimized gene SEQ ID NO:3 (protein, listed as Mortierella alpina)
chain: MAAAPSVRTFTRAEVLNAEALNEGKKDAEAPFLMIIDNKVYDVREFVPDHPGGSVILTHVGKDGTDVFDTFHPEAAWETLANFYVGDIDESDRDIKNDDFAAEVRKLRTLFQSLGYYDSSKAYYAFKVSFNLCIWGLSTVIVAKWGQTSTLANVLSAALLGLFWQQCGWLAHDFLHHQVFQDRFWGDLFGAFLGGVCQGFSSSWWKDKHNTHHAAPNVHGEDPDIDTHPLLTWSEHALEMFSDVPDEELTRMWSRFMVLNQTWFYFPILSFARLSWCLQSILFVLPNGQAHKPSGARVPISLVEQLSLAMHWTWYLATMFLFIKDPVNMLVYFLVSQAVCGNLLAIVFSLNHNGMPVISKEEAVDMDFFTKQIITGRDVHPGLFANWFTGGLNYQIEHHLFPSMPRHNFSKIQPAVETLCKKYNVRYHTTGMIEGTAEVFSRLNEVSKATSKMGKAQ
modifications: misc_feature: synthetic delta-6 desaturase (codon-optimized)
B2: Isochrysis galbana Δ9 elongase: codon-optimized gene SEQ ID NO:41 (protein)
chain: MALANDAGERIWAAVTDPEILIGTFSYLLLKPLLRNSGLVDEKKGAYRTSMIWYNVLLALFSALSFYVTATALGWDYGTGAWLRRQTGDTPQPLFQCPSPVWDSKLFTWTAKAFYYSKYVEYLDTAWLVLKGKRVSFLQAFHHFGAPWDVYLGIRLHNEGVWIFMFFNSFIHTIMYTYYGLTAAGYKFKAKPLITAMQICQFVGGFLLVWDYINVPCFNSDKGKLFSWAFNYAYVGSVFLLFCHFFYQDNLATKKSAKAGKQL
modifications: IgD9e: synthetic delta-9 elongase (codon-optimized for Yarrowia lipolytica)
B3: M. alpina high affinity C18/20 elongase: GenBank AX464731; codon-optimized gene SEQ ID NO:19 (protein, listed as Mortierella alpina)
chain: MESIAPFLPSKMPQDLFMDLASAIGVRAAPYVDPLEAALVAQAEKYIPTIVHHTRGFLVAVESPLARELPLMNPFHVLLIVLAYLVTVFVGMQIMKNFERFEVKTFSLLHNFCLVSISAYMCGGILYEAYQANYGLFENAADHTFKGLPMAKMIWLFYFSKIMEFVDTMIMVLKKNNRQISFLHVYHHSSIFTIWWLVTFVAPNGEAYFSAALNSFIHVIMYGYYFLSALGFKQVSFIKFYITRSQMTQFCMMSVQSSWDMYAMKVLGRPGYPFFITALLWFYMWTMLGLFYNFYRKNAKLAKQAKADAAKEKARKLQ
modifications: misc_feature: synthetic elongase 1 (codon-optimized)
B4: S. diclina Δ17 desaturase: US 2003/0196217 A1; codon-optimized gene SEQ ID NO:16 (protein, listed as Saprolegnia diclina)
chain: MAEDKTKVEFPTLTELKHSIPNACFESNLGLSLYYTARAIFNASASAALLYAARSTPFIADNVLLHALVCATYIYVQGVIFWGFFTVGHDCGHSAFSRYHSVNFIIGCIMHSAILTPFESWRVTHRHHHKNTGNIDKDEIFYPHRSVKDLQDVRQWVYTLGGAWFVYLKVGYAPRTMSHFDPWDPLLLRRASAVIVSLGVWAAFFAAYAYLTYSLGFAVMGLYYYAPLFVFASFLVITTFLHHNDEATPWYGDSEWTYVKGNLSSVDRSYGAFVDNLSHHIGTHQVHHLFPIIPHYKLNEATKHFAAAYPHLVRRNDEPIITAFFKTAHLFVNYGAVPETAQIFTLKESAAAAKAKSD
modifications: misc_feature: synthetic delta-17 desaturase (codon-optimized)
B5: T. aureum C18/20 elongase: codon-optimized gene SEQ ID NO:22 (protein, listed as Thraustochytrium aureum)
chain: MANSSVWDDVVGRVETGVDQWMDGAKPYALTDGLPMMDVSTMLAFEVGYMAMLLFGIPIMKQMEKPFELKTIKLLHNLFLFGLSLYMCVETIRQAILGGYKVFGNDMEKGNESHAQGMSRIVYVFYVSKAYEFLDTAIMILCKKFNQVSFLHVYHHATIFAIWWAIAKYAPGGDAYFSVILNSFVHTVMYAYYFFSSQGFGFVKPIKPYITTLQMTQFMAMLVQSLYDYLFPCDYPQALVQLLGVYMITLLALFGNFFVQSYLKKPKKSKTN
modifications: misc_feature: synthetic elongase (codon-optimized)
B6: Isochrysis galbana Δ5 desaturase: codon-optimized gene SEQ ID NO:10 (protein, listed as Isochrysis galbana)
chain: MVAGKSGAAAHVTHSSTLPREYHGATNDSRSEAADVTVSSIDAEKEMIINGRVYDVSSFVKRHPGGSVIKFQLGADASDAYNNFHVRSKKADKMLYSLPSRPAEAGYAQDDISRDFEKLRLELKEEGYFEPNLVHVSYRCVEVLAMYWAGVQLIWSGYWFLGAIVAGIAQGRCGWLQHEGGHYSLTGNIKIDRHLQMAIYGLGCGMSGCYWRNQHNKHHATPQKLGTDPDLQTMPLVAFHKIVGAKARGKGKAWLAWQAPLFFGGIICSLVSFGWQFVLHPNHALRVHNHLELAYMGLRYVLWHLAFGHLGLLSSLRLYAFYVAVGGTYIFTNFAVSHTHKDVVPPTKHISWALYSANHTTNCSDSPFVNWWMAYLNFQIEHHLFPSMPQYNHPKIAPRVRALFEKHGVEYDVRPYLECFRVTYVNLLAVGNPEHSYHEHTH
modifications: misc_feature: synthetic delta-5 desaturase (codon-optimized)
B7: D8SF: completely corrected synthetic codon-optimized Δ8 desaturase gene, SEQ ID NO:48 (protein)
chain: MVKSKRQALPLTIDGTTYDVSAWVNFHPGGAEIIENYQGRDATDAFMVMHSQEAFDKLKRMPKINPSSELPPQAAVNEAQEDFRKLREELIATGMFDASPLWYSYKISTTLGLGVLGYFLMVQYQMYFIGAVLLGMHYQQMGWLSHDICHHQTFKNRNWNNLVGLVFGNGLQGFSVTWWKDRHNAHHSATNVQGHDPDIDNLPLLAWSEDDVTRASPISRKLIQFQQYYFLVICILLRFIWCFQSVLTVRSLKDRDNQFYRSQYKKEAIGLALHWTLKTLFHLFFMPSILTSLLVFFVSELVGGFGIAIVVFMNHYPLEKIGDSVWDGHGFSVGQIHETMNIRRGIITDWFFGGLNYQIEHHLWPTLPRHNLTAVSYQVEQLCQKHNLPYRNPLPHEGLVILLRYLAVFARMAEKQPAGKAL
modifications: D8SF: synthetic delta-8 desaturase (codon-optimized for Yarrowia lipolytica)
B8: IgD9e: synthetic codon-optimized Δ9 elongase gene, SEQ ID NO:41 (protein)
chain: B2 chain
modifications: IgD9e: synthetic delta-9 elongase (codon-optimized for Yarrowia lipolytica)
B9: Y. lipolytica Δ12 desaturase: native Yarrowia lipolytica Δ12 desaturase, SEQ ID NOs:23 and 24 (protein, listed as Yarrowia lipolytica)
chain: MDSTTQTNTGTGKVAVQPPTAFIKPIEKVSEPVYDTFGNEFTPPDYSIKDILDAIPQECYKRSYVKSYSYVARDCFFIAVFAYMAYAYLPLIPSASGRAVAWAMYSIVQGLFGTGLWVLAHECGHSAFSDSNTVNNVTGWVLHSSMLVPYYAWKLTHSMHHKSTGHLTRDMVFVPKDRKEFMENRGAHDWSELAEDAPLMTLYGLITQQVFGWPLYLLSYVTGQKYPKLNKWAVNHFNPNAPLFEKKDWFNIWISNVGIGITMSVIAYSINRWGLASVTLYYLIPYLWVNHWLVAITYLQHTDPTLPHYHADQWNFTRGAAATIDREFGFIGSFCFHDIIETHVLHHYVSRIPFYNARIATEKIKKVMGKHYRHDDTNFIKSLYTVARTCQFVEGKEGIQMFRNVNGVGVAPDGLPSKK

These molecules were tested on Yarrowia lipolytica (assay: Percent substrate conversion of desaturases and elongases expressed in Yarrowia lipolytica). Details: percent substrate conversion, codon-optimized gene expressed in Y. lipolytica.
Assay type: cell-based
Procedure: The terms “conversion efficiency” and “percent substrate conversion” refer to the efficiency by which a particular enzyme (e.g., a desaturase or elongase) can convert substrate to product. The conversion efficiency is measured according to the following formula: ([product]/[substrate+product])*100, where ‘product’ includes the immediate product and all products in the pathway derived from it.
With respect to Δ12 desaturase, Applicants have made the surprising discovery that the Fusarium moniliforme Δ12 desaturase (encoded by SEQ ID NO:27) functions with greater efficiency than the native Yarrowia lipolytica Δ12 desaturase in producing 18:2 in Y. lipolytica (see WO 2005/047485). Specifically, expression of the F. moniliforme Δ12 desaturase under the control of the TEF promoter in Y. lipolytica was determined to produce higher levels of 18:2 (68% product accumulation of LA) than were previously attainable by expression of a chimeric gene encoding the Y. lipolytica Δ12 desaturase under the control of the TEF promoter (59% product accumulation of LA). This corresponds to a difference in percent substrate conversion (calculated as ([18:2+18:3]/[18:1+18:2+18:3])*100) of 85% versus 74%, respectively.
In the present invention, several desaturase and elongase genes from Table 5 were codon-optimized for expression in Yarrowia lipolytica, based on the host preferences described above. This was possible by first determining the Y. lipolytica codon usage profile (see WO 04/101757) and identifying those codons that were preferred. Then, for further optimization of gene expression in Y. lipolytica, the consensus sequence around the ‘ATG’ initiation codon was determined (i.e., ‘MAMMATGNHS’ (SEQ ID NO:356), wherein the nucleic acid degeneracy code used is as follows: M=A/C; S═C/G; H=A/C/T; and N=A/C/G/T). Table 7, below, compares the activity of native and codon-optimized genes when expressed in Y. lipolytica and provides details about each codon-optimized gene. % Sub. Conv. is the abbeviation for “percent substrate conversion” and Codon-Opt. is an abbreviation for “codon-optimized”.
Construct pDMW237 (FIG. 8C), an auto-replication plasmid comprising a chimeric FBAIN::1 g D9e::Pex20 gene, was transformed into Y. lipolytica Y2031 strain (Example 4) as described in the General Methods. Three transformants of Y2031 with pDMW237 were grown individually in MM media for two days and the cells were collected by centrifugation, lipids were extracted, and fatty acid methyl esters were prepared by trans-esterification, and subsequently analyzed with a Hewlett-Packard 6890 GC.
Construct pDMW297 was then used for transformation of strain Y2031 (Example 5) according to the General Methods. The transformant cells were plated onto MM selection media plates and maintained at 30° C. for 2 to 3 days. A total of 8 transformants grown on the MM plates were picked and re-streaked onto fresh MM plates. Once grown, these strains were individually inoculated into liquid MM at 30° C. and shaken at 250 rpm/min for 2 days. The cells were collected by centrifugation, lipids were extracted, and fatty acid methyl esters were prepared by trans-esterification, and subsequently analyzed with a Hewlett-Packard 6890 GC.

Molecule	Codon-Opt. Gene % Sub. Conv. [%]
B1	42
B2	30
B3	47
B4	45
B5	46
B6	32

Same assay, conditions: percent substrate conversion, expressed in Y. lipolytica

Molecule	Native Gene % Sub. Conv. [%]
B1	30
B3	30
B4	23
B5	33
B6	7

Same assay, conditions: transformants of strain Y2031, MM, 2 days

Molecule	percent (%) substrate conversion of the codon-optimized gene
B7	75%
B8	about 13%

Same assay, conditions: under the control of the TEF promoter in Y. lipolytica

Molecule	percent substrate conversion (calculated as ([18:2+18:3]/[18:1+18:2+18:3])*100) [%]	product accumulation of LA [%]
B9	74	59
